Assays:
[1] = molecular target: T1, human insulin-like growth factor II (IGF-II) (human, UniProt P01344 25-91); assay: ELISA on coated IGF-II after incubation of the antibody with an equal volume of human serum at 37 C for 0 to 9 days
T1 construct: also called biotinylated IGF-II

[2] = molecular target: T2, recombinant human insulin-like growth factor I (IGF-I) (human, UniProt P05019 49-118); assay: Biacore, IgG1 format
T2 construct: coated or coupled to a CM5 chip in ELISA and Biacore; also called biotinylated IGF-I

[3] = molecular target: T1, human insulin-like growth factor II …; assay: Biacore, IgG1 format
[4] = molecular target: T2, recombinant human insulin-like growth …; assay: ELISA, serial dilutions of IgG on coated IGF-I, detected with HRP anti-human Fc antibody
[5] = molecular target: human insulin (human); assay: ELISA, 10 nM IgG on coated human insulin, detected with HRP anti-human Fc antibody
[6] = molecular target: T2, recombinant human insulin-like growth …; assay: Biacore, IgG1 format (effective KD, avidity)
[7] = molecular target: T1, human insulin-like growth factor II …; assay: Biacore, IgG1 format (effective KD, avidity)
[8] = molecular target: T1, human insulin-like growth factor II …; assay: ELISA, serial dilutions of IgG on coated IGF-II, detected with HRP anti-human Fc antibody
[9] = molecular target: T2, recombinant human insulin-like growth …; assay: ELISA on coated IGF-I after incubation of the antibody with an equal volume of human serum at 37 C for 0 to 9 days
[10] = molecular target: T2, recombinant human insulin-like growth …; assay: cell-based or functional assay
[11] = molecular target: T1, human insulin-like growth factor II …; assay: cell-based or functional assay
[12] = molecular target: T2, recombinant human insulin-like growth …; assay: Biacore X100, antigen immobilized on CM5, soluble scFv injected
[13] = molecular target: T1, human insulin-like growth factor II …; assay: as above
[14] = molecular target: T2, recombinant human insulin-like growth …; assay: FACS titration of yeast-displayed scFv with biotinylated antigen
[15] = molecular target: T1, human insulin-like growth factor II …; assay: as above
[16] = molecular target: T1, human insulin-like growth factor II …; assay: ELISA on coated IGF-II after incubation of the antibody with an equal volume of human serum at 37 C for 0 to 9 days; remark: listed apart in the source
[17] = molecular target: T2, recombinant human insulin-like growth …; assay: ELISA on coated IGF-I after incubation of the antibody with an equal volume of human serum at 37 C for 0 to 9 days; remark: listed apart in the source
[18] = molecular target: T2, recombinant human insulin-like growth …; assay: FACS titration of yeast-displayed scFv with biotinylated antigen; remark: listed apart in the source
[19] = molecular target: T1, human insulin-like growth factor II …; assay: as above; remark: listed apart in the source

T2 sequence (P05019 49-118 limits assumed): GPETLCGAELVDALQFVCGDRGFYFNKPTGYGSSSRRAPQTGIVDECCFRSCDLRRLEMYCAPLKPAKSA
T1 sequence (P01344 25-91): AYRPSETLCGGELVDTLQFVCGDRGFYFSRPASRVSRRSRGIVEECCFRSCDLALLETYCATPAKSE
human insulin (human), sequence (chain, as listed by the source limits assumed, chain 1 of 2): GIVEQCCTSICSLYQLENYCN
human insulin (human), sequence (chain, as listed by the source limits assumed, chain 2 of 2): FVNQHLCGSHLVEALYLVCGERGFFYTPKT

Binder	EC50 (read off the curve) [4] [nM]	growth inhibition of MCF-7 cells (MTS, 3 days; 2.5 nM IGF-I and 2.5 nM IGF-II added) [10] [nM]	growth inhibition of MCF-7 cells (MTS, 3 days; 2.5 nM IGF-I and 2.5 nM IGF-II added) [11] [nM]	Kd [12] [nM]	koff [12] [s⁻¹]	kon [12] [M⁻¹ s⁻¹]	Kd [13] [nM]	koff [13] [s⁻¹]	kon [13] [M⁻¹ s⁻¹]	Kd [14] [nM]	Kd [15] [nM]	other results
IgG1 m708.5 (antibody, V domains shown, Human IgG1, converted from the scFv in vector pDR12 and expressed in 293 FreeStyle cells; also called m708.5 IgG; IgG m708.5) VH: QVQLQQLGAEVKMPGSSVKVSCKASGGTFSSYAISWVRQAPGQGLEWMGGIIPTLGIVKYAQKFQGRVTITADKSTSTAYMELSSLGSEDTAVYYCAGGPRGYSYNFDNWGQGTLVTVSS VL: DIQMTQSPSSLSASVGDRVTIVCRASQTISRYVNWYQQKPGKAPKLLIYAASSLQSGVSSRFSGSGSGTEFALTISSLQPEDFATYFCQQTYSPPITFGQGTRLEIKQ	~0.4	> 40	> 40	–	–	–	–	–	–	–	–	EC50 (read off the curve) [1]: ~2 nM; fold change of effective KD against the scFv [2]: 1000 fold; fold change of effective KD against the scFv [3]: 60 fold; binding result [5]: no binding (tested: 10 nM); Kd [6]: < 0.001 nM; Kd [7]: < 0.001 nM; EC50 (read off the curve) [8]: ~0.1 nM; EC50 (read off the curve) [9]: ~2 nM
m708.2 scFv (scFv, V domains shown, One-chain scFv; Biacore on the isolated soluble scFv from pComb3x) VH: QVQLQQPGAEVKKPGSSVKVSCKASGGTFSSYAISWVRQAPGQGLEWMGGIIPILGIANYAQKFQGRVTITADESTSTAYMELSSLRSEDTAVYYCARGPRGYSYNFDYWGQGTLVTVSS VL: DIQMTQSPSSLSASVGDRVTIACRASQTISRYLNWYQQKPGKAPKLLIYAASSLQSGVSSRFSGSGSGTEFTLTISSLQPEDFATYFCQQTYSPPITFGQGTRLEIKR	–	–	–	2.2	0.0024	1.1e+06	1.8	0.0004	230000	3.9	1.1	–
IgG1 m708.2 (antibody, V domains shown, Human IgG1 (pDR12, 293 FreeStyle cells); also called IgG m708.2; IgG708.2) VH: QVQLQQPGAEVKKPGSSVKVSCKASGGTFSSYAISWVRQAPGQGLEWMGGIIPILGIANYAQKFQGRVTITADESTSTAYMELSSLRSEDTAVYYCARGPRGYSYNFDYWGQGTLVTVSS VL: DIQMTQSPSSLSASVGDRVTIACRASQTISRYLNWYQQKPGKAPKLLIYAASSLQSGVSSRFSGSGSGTEFTLTISSLQPEDFATYFCQQTYSPPITFGQGTRLEIKR	~3	> 80	> 80	–	–	–	–	–	–	–	–	IGF-I-induced (1 nM) phosphorylation of IGF-IR in MCF-7 cells, immunoblot [10]: 10 nM
bispecific antibody m67 (bispecific antibody) chain 1: QVQLVQSGAEVKKPGASVKVSCKASGYTFTSYYMHWVRQAPGQGLEWMGIINPSGGSTSYAQKFQGRVTMTRDTSTSTVYMELSRLRSDDTAVYYCARDVQWLAYGMDVWGQGTTVTVSS chain 2: DIQMTQSPSSLSASVGDRVTITCRASQSISSYLNWYQQKPGRAPDLLINAASSLQSGVPSRFSGSGSGTDFTLTISSLQPEDFATYFCQQSYSLPFTFGGGTKVEIK chain 3: QVQLQQLGAEVKMPGSSVKVSCKASGGTFSSYAISWVRQAPGQGLEWMGGIIPTLGIVKYAQKFQGRVTITADKSTSTAYMELSSLGSEDTAVYYCAGGPRGYSYNFDNWGQGTLVTVSS chain 4: DIQMTQSPSSLSASVGDRVTIVCRASQTISRYVNWYQQKPGKAPKLLIYAASSLQSGVSSRFSGSGSGTEFALTISSLQPEDFATYFCQQTYSPPITFGQGTRLEIKQ	–	–	–	–	–	–	–	–	–	–	–	EC50 (read off the curve) [16]: ~3 nM; EC50 (read off the curve) [17]: ~1 nM
m708.5 scFv (scFv, V domains shown, One-chain scFv; also called scFv m708.5) VH: QVQLQQLGAEVKMPGSSVKVSCKASGGTFSSYAISWVRQAPGQGLEWMGGIIPTLGIVKYAQKFQGRVTITADKSTSTAYMELSSLGSEDTAVYYCAGGPRGYSYNFDNWGQGTLVTVSS VL: DIQMTQSPSSLSASVGDRVTIVCRASQTISRYVNWYQQKPGKAPKLLIYAASSLQSGVSSRFSGSGSGTEFALTISSLQPEDFATYFCQQTYSPPITFGQGTRLEIKQ	–	–	–	0.2	0.00028	1.4e+06	0.061	0.00025	4.1e+06	0.1	0.041	fold improvement of affinity against m708.2 [18]: 39 fold; fold improvement of affinity against m708.2 [19]: 27 fold

Reference: patent US20160024199A1 (US Dept. of Health and Human Services, published 2016)
